Measured values reported in US20060084593A1.

Molecular target: gp120/CD4 complex (human immunodeficiency virus (HIV), hxbc2) (UniProt P04578)
Test: SPR (Biacore); 48d immobilized; gp120 50 nM, CD4 250 nM, heparin dp16 at 125 nM (0.6 µg/ml) as inhibitor

“antibody 48d specific for the CD4i epitope” gave a % inhibition of the interaction by heparin dp16 (125 nM) of 90 to 100%.
